Data reported in publication PMC10859935, “Surface Charge Can Modulate Phase Separation of Multidomain Proteins” (Journal of the American Chemical Society, 2024).

Experiments:
[1] = target: polySIM (protein consisting of 10 SIMs derived from the PIASx protein)
[2] = target: small ubiquitin-like modifier protein 1 (SUMO1) domain, wild type (UniProt P63165); test: static light scattering (second virial coefficient A2); pH 6.5; 25 °C; A2 from the slope of scattering intensity versus mass concentration; weak self-association of a single domain
[3] = target: small ubiquitin-like modifier protein 1 (SUMO1) domain, wild type (UniProt P63165); test: static light scattering (second virial coefficient A2); pH 8.0; 25 °C; 20 mM HEPES, 150 mM KCl, 1 mM MgCl2, 1 mM DTT, 1 mM EGTA; A2 from the slope of scattering intensity versus concentration
[4] = target: T1, small ubiquitin-like modifier protein 1 (SUMO1) domain, wild type (UniProt P63165 1-97); test: ITC; 50–100 μM SIM peptide in the cell, SUMO in the syringe; 25 °C; 20 mM HEPES (pH 7.0 or 8.0) or 20 mM MES (pH 6.5), 150 mM KCl, 1 mM MgCl2, 1 mM DTT, 1 mM EGTA; 1:1 binding model; conditions: both partners purified
T1 construct: SUMO1, single domain; also called WT SUMO; WT SUMO1; source: BL21(DE3) T1R cells, purified (Ni-NTA, TEV cleavage, Source15Q, Superdex200); not shown: His8, N-terminal, cleaved
T1 sequence (P63165 1-97): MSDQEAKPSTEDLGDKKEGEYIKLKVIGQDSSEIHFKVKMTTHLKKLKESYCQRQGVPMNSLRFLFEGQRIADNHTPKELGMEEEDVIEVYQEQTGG

polySUMO (synthetic protein consisting of five SUMO domains)
phase-separation threshold (module concentration, equimolar modules) by turbidity at 340 nm, pH 6 [1]: 75 μM
phase-separation threshold (module concentration, equimolar modules) by turbidity at 340 nm, pH 6.5 [1]: 100 μM
phase-separation threshold (module concentration, equimolar modules) by turbidity at 340 nm, pH 7 [1]: 150 μM
phase-separation threshold (module concentration, equimolar modules) by turbidity at 340 nm, pH 8 [1]: 300 μM

small ubiquitin-like modifier protein 1 (SUMO1) domain, wild type (from UniProt P63165 1-97) (natural protein)
A2 (second virial coefficient) [2]: -0.00012 mol mL g^–2
A2 (second virial coefficient) [3]: 0.00012 mol mL g^–2

KVDVIDLTIESSSDEEEDPPAKR [SUMO interaction motif (SIM) peptide derived from the PIASx protein]
Kd [4]: 15 to 20 µM
